Assay results from the supplement of paper PMC10724198.
± gives the standard deviation of the averaged measurements.

Columns and labels:
Assay in all cases: protein stability index of tFT-peptide fusion (C-terminal peptide) (PSI (0-1 scale)); higher = more stable (slower turnover)
Saccharomyces cerevisiae [1] = conditions: temperature: 30 C
Protocol: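 MPS profiling in S. cerevisiae of the yeast C-terminome library: the last 12 aa of each annotated ORF are fused to the C-terminus of a sfGFP-mCherry timer, after a GGGS linker. Cells are FACS-sorted into 8 mCherry/sfGFP bins and deep-sequenced. PSI runs from 0 (unstable) to 1 (stable); wild type and das1Δ backgrounds, two technical replicates each.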

Saccharomyces cerevisiae [2] = conditions: genetic background: wild type; temperature: 30 C
Saccharomyces cerevisiae [3] = system: Saccharomyces cerevisiae
Protocol: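 MPS profiling in S. cerevisiae of the tFT-X12 degron library: putative degron peptides plus stable controls, 12 aa, fused to the C-terminus of a sfGFP-mCherry timer. Cells are FACS-sorted into 8 mCherry/sfGFP bins and deep-sequenced. PSI runs from 0 (unstable) to 1 (stable). Backgrounds are wild type, das1Δ and doa10Δ at 30 °C, and wild type, das1Δ, cdc34-1 and cdc53-1 at 37 °C; 2-3 technical replicates each.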

[4] = genetic background: das1 deletion
[5] = genetic background: cdc34-1, temperature: 37 C
[6] = genetic background: cdc53-1, temperature: 37 C
[7] = genetic background: das1 deletion, temperature: 30 C
[8] = genetic background: das1 deletion, temperature: 37 C
[9] = genetic background: doa10 deletion, temperature: 30 C
[10] = genetic background: wild type, temperature: 30 C
[11] = genetic background: wild type, temperature: 37 C

Sequence	protein stability index (Saccharomyces cerevisiae [1]; [4])	protein stability index (Saccharomyces cerevisiae [1]; genetic background: wild type)	protein stability index (Saccharomyces cerevisiae [2])	protein stability index (Saccharomyces cerevisiae [3]; [5])	protein stability index (Saccharomyces cerevisiae [3]; [6])	protein stability index (Saccharomyces cerevisiae [3]; [7])	protein stability index (Saccharomyces cerevisiae [3]; [8])	protein stability index (Saccharomyces cerevisiae [3]; [9])	protein stability index (Saccharomyces cerevisiae [3]; [10])	protein stability index (Saccharomyces cerevisiae [3]; [11])
ADIMEKVHKWFA [PSE1 C-terminal 12 aa]	0.68931 ± 0.00046	0.6649 ± 0.0041	–	–	–	–	–	–	–	–
ADKELSFEINVK [BRR2 C-terminal 12 aa]	0.6946 ± 0.003	0.741 ± 0.066	–	–	–	–	–	–	–	–
AFSDLSTLENAS [ATG42 C-terminal 12 aa]	0.7267 ± 0.001	0.723 ± 0.03	–	–	–	–	–	–	–	–
AFTRRRFMNKSL [ARC18 C-terminal 12 aa]	0.69 ± 0.012	0.485 ± 0.034	–	–	–	–	–	–	–	–
AGIHPDRAKLLK [NOP6 C-terminal 12 aa]	0.68 ± 0.013	0.6934 ± 0.0056	–	–	–	–	–	–	–	–
AGTENDEEEFNI [PSF2 C-terminal 12 aa]	0.674 ± 0.018	0.672 ± 0.044	–	–	–	–	–	–	–	–
AINYIGNIRRNE [ACO2 C-terminal 12 aa]	0.7288 ± 0.0043	0.727 ± 0.048	–	–	–	–	–	–	–	–
AIRTRKFDNNKR [RED1 C-terminal 12 aa]	0.716 ± 0.046	0.6648 ± 0.0027	–	–	–	–	–	–	–	–
AIWIFYIDFRVH [YCL021W-A C-terminal 12 aa]	0.227 ± 0.024	0.201 ± 0.011	–	–	–	–	–	–	–	–
AKDAFTSTLPTH [GFD2 C-terminal 12 aa]	0.7 ± 0.017	0.716 ± 0.021	–	–	–	–	–	–	–	–
AKDYLLDLAGQA [YBR085C-A C-terminal 12 aa]	0.71316 ± 0.00065	0.659 ± 0.012	–	–	–	–	–	–	–	–
AKLSEGTSFRRK [RPS27A C-terminal 12 aa]	0.6952 ± 0.0023	0.681 ± 0.037	–	–	–	–	–	–	–	–
AKNARPSKKRKF [DBP10 C-terminal 12 aa]	0.752 ± 0.025	0.6782 ± 0.0047	–	–	–	–	–	–	–	–
AKPKYEKILIDN [RTC2 C-terminal 12 aa]	0.703 ± 0.011	0.666 ± 0.035	–	–	–	–	–	–	–	–
AKRDILPSPVSV [LPP1 C-terminal 12 aa]	0.6165 ± 0.005	0.646 ± 0.04	–	–	–	–	–	–	–	–
ALKHGEKAFNIN [NEM1 C-terminal 12 aa]	0.678 ± 0.017	0.6766 ± 0.0023	–	–	–	–	–	–	–	–

Sequence	protein stability index (Saccharomyces cerevisiae [1]; [4])	protein stability index (Saccharomyces cerevisiae [1]; genetic background: wild type)	protein stability index (Saccharomyces cerevisiae [2])	protein stability index (Saccharomyces cerevisiae [3]; [5])	protein stability index (Saccharomyces cerevisiae [3]; [6])	protein stability index (Saccharomyces cerevisiae [3]; [7])	protein stability index (Saccharomyces cerevisiae [3]; [8])	protein stability index (Saccharomyces cerevisiae [3]; [9])	protein stability index (Saccharomyces cerevisiae [3]; [10])	protein stability index (Saccharomyces cerevisiae [3]; [11])
ALLDGFVTAAGY [DAK2 C-terminal 12 aa]	0.745 ± 0.027	0.728 ± 0.016	–	–	–	–	–	–	–	–
AMLKPSSKEGSP [COQ10 C-terminal 12 aa]	0.6955 ± 0.0028	0.718 ± 0.0063	–	–	–	–	–	–	–	–
ANESLEEDLNLD [YBR137W C-terminal 12 aa]	0.698 ± 0.031	0.661 ± 0.025	–	–	–	–	–	–	–	–
ANKNDAISKKVE [ATG23 C-terminal 12 aa]	0.69 ± 0.017	0.763 ± 0.077	–	–	–	–	–	–	–	–
AQQNYRLWLSSV [ATG41 C-terminal 12 aa]	0.682 ± 0.016	0.3264 ± 0.0023	–	–	–	–	–	–	–	–
ARLLRFWDHIIR [SHU1 C-terminal 12 aa]	0.728 ± 0.016	0.686 ± 0.06	–	–	–	–	–	–	–	–
ARTSDELQFTLP [MPT5 C-terminal 12 aa]	0.7165 ± 0.0027	0.6868 ± 0.0057	–	–	–	–	–	–	–	–
ARVASQLGQKKK [PRO3 C-terminal 12 aa]	0.6735 ± 0.0064	0.684 ± 0.014	–	–	–	–	–	–	–	–
VVFRCSSFFCLV	–	–	0.4449 ± 0.002	0.54 ± 0.0062	0.6156 ± 0.006	0.524 ± 0.029	0.622 ± 0.015	0.387 ± 0.033	0.405 ± 0.035	0.536 ± 0.0083
VVIYWFLPIIFA	–	–	0.23 ± 0.029	0.09487 ± 0.00071	0.0751 ± 0.015	0.163 ± 0.032	0.253 ± 0.018	0.266 ± 0.006	0.155 ± 0.021	0.224 ± 0.013
VVLGLFCVRMGT	–	–	0.522 ± 0.031	0.541 ± 0.018	0.606 ± 0.019	0.454 ± 0.031	0.6108 ± 0.0044	0.418 ± 0.01	0.451 ± 0.02	0.5718 ± 0.0034
VVLVGVAVCRLG	–	–	0.368 ± 0.011	0.4 ± 0.0065	0.47 ± 0.013	0.29 ± 0.025	0.4888 ± 0.0021	0.244 ± 0.01	0.277 ± 0.014	0.46 ± 0.0018
VVNFLVFRFFCI	–	–	0.285 ± 0.06	0.53 ± 0.046	0.531 ± 0.015	0.481 ± 0.029	0.649 ± 0.026	0.216 ± 0.016	0.217 ± 0.037	0.39 ± 0.018
VVPYPFLTLLNI	–	–	0.58 ± 0.12	0.417 ± 0.026	0.407 ± 0.029	0.403 ± 0.041	0.539 ± 0.014	0.589 ± 0.033	0.381 ± 0.012	0.492 ± 0.0084
VVRVSFSFCLSC	–	–	0.373 ± 0.015	0.476 ± 0.023	0.498 ± 0.045	0.48 ± 0.029	0.459 ± 0.021	0.408 ± 0.026	0.388 ± 0.029	0.425 ± 0.024
VVSVVVLVNSRG	–	–	0.441 ± 0.017	0.465 ± 0.029	0.501 ± 0.067	0.36 ± 0.023	0.5405 ± 0.0032	0.3414 ± 0.0024	0.373 ± 0.024	0.518 ± 0.0064
